Reference: publication PMC7847308, “Nanoscopic anatomy of dynamic multi-protein complexes at membranes resolved by graphene-induced energy transfer” (eLife, 2021)

How the values were obtained:
Settings in all cases: both partners purified
[1] = biological target: T1, HOPS complex with Vps16 C-terminally fused to yEGFP (S. cerevisiae, UniProt P38959 1-992; Q07468 1-1049; P12868 1-1029; P27801 1-918; Q03308 1-798; P20795 …); assay: confocal fluorescence imaging and FLIM of recruitment to supported lipid layers; 50 nM yEGFP-fused HOPS added for 5 min at room temperature to DOPC bilayers on glass or monolayers on graphene loaded with 150 nM pYpt7-GTP; washed 5 times with HBS
T1 construct: Vps41, HOPS subunit, S. cerevisiae; Vps39, HOPS subunit, S. cerevisiae; Vps11, HOPS subunit, S. cerevisiae; Vps18, HOPS subunit, S. cerevisiae; Vps16, HOPS subunit, S. cerevisiae; Vps33, HOPS subunit, S. cerevisiae; also called HOPS Vps16-yEGFP; HOPS (Vps16-yEGFP); source: S. cerevisiae, overexpressed, purified (IgG Sepharose, TEV elution); copies: + + + + +

[2] = biological target: T2, HOPS complex with Vps33 C-terminally fused to yEGFP (S. cerevisiae, UniProt P38959 1-992; Q07468 1-1049; P12868 1-1029; P27801 1-918; Q03308 1-798; P20795 …); assay: as above
T2 construct: Vps41, HOPS subunit, S. cerevisiae; Vps39, HOPS subunit, S. cerevisiae; Vps11, HOPS subunit, S. cerevisiae; Vps18, HOPS subunit, S. cerevisiae; Vps16, HOPS subunit, S. cerevisiae; Vps33, HOPS subunit, S. cerevisiae; In the single-molecule experiment labelled with 50 pM Dy647-coupled anti-GFP nanobody; also called HOPS Vps33-yEGFP; HOPS Vps33; source: S. cerevisiae, overexpressed, purified (IgG …)

[3] = biological target: T3, HOPS complex with Vps39 C-terminally fused to yEGFP (S. cerevisiae, UniProt P38959 1-992; Q07468 1-1049; P12868 1-1029; P27801 1-918; Q03308 1-798; P20795 …); assay: as above
T3 construct: Vps41, HOPS subunit, S. cerevisiae; Vps39, HOPS subunit, S. cerevisiae; Vps11, HOPS subunit, S. cerevisiae; Vps18, HOPS subunit, S. cerevisiae; Vps16, HOPS subunit, S. cerevisiae; Vps33, HOPS subunit, S. cerevisiae; also called HOPS Vps39-yEGFP; yEGFP-tagged HOPS; source: S. cerevisiae, overexpressed, purified (IgG Sepharose, TEV elution); copies: + + + + +

[4] = biological target: T4, HOPS complex with Vps18 C-terminally fused to yEGFP (S. cerevisiae, UniProt P38959 1-992; Q07468 1-1049; P12868 1-1029; P27801 1-918; Q03308 1-798; P20795 …); assay: as above
T4 construct: Vps41, HOPS subunit, S. cerevisiae; Vps39, HOPS subunit, S. cerevisiae; Vps11, HOPS subunit, S. cerevisiae; Vps18, HOPS subunit, S. cerevisiae; Vps16, HOPS subunit, S. cerevisiae; Vps33, HOPS subunit, S. cerevisiae; also called HOPS Vps18-yEGFP; yEGFP-tagged HOPS; source: S. cerevisiae, overexpressed, purified (IgG Sepharose, TEV elution); copies: + + + + +

[5] = biological target: T5, HOPS complex with Vps11 C-terminally fused to yEGFP (S. cerevisiae, UniProt P38959 1-992; Q07468 1-1049; P12868 1-1029; P27801 1-918; Q03308 1-798; P20795 …); assay: as above
T5 construct: Vps41, HOPS subunit, S. cerevisiae; Vps39, HOPS subunit, S. cerevisiae; Vps11, HOPS subunit, S. cerevisiae; Vps18, HOPS subunit, S. cerevisiae; Vps16, HOPS subunit, S. cerevisiae; Vps33, HOPS subunit, S. cerevisiae; In the single-molecule experiment labelled with 50 pM Dy647-coupled anti-GFP nanobody; also called HOPS Vps11-yEGFP; HOPS Vps11; source: S. cerevisiae, overexpressed, purified (IgG …)

HOPS complex = biological target: T6, HOPS complex (S. cerevisiae, UniProt P38959 1-992; Q07468 1-1049; P12868 1-1029; P27801 1-918; Q03308 1-798; P20795 …); assay: FRAP and confocal imaging on supported lipid bilayers; 200 nM mNeon-pYpt7-GTP anchored in glass-supported lipid bilayers, 100 nM HOPS added; room temperature
T6 construct: Vps41, HOPS subunit, S. cerevisiae; Vps39, HOPS subunit, S. cerevisiae; Vps11, HOPS subunit, S. cerevisiae; Vps18, HOPS subunit, S. cerevisiae; Vps16, HOPS subunit, S. cerevisiae; Vps33, HOPS subunit, S. cerevisiae; 650 kDa heterohexamer; the 3HA follows the GAL1 promoter in the genotype; also called homotypic fusion and vacuole protein sorting complex; untagged HOPS; source: S. cerevisiae, …

Mon1-Ccz1 complex = biological target: T7, Mon1-Ccz1 complex (S. cerevisiae, UniProt P53129 1-644; P38273 1-704); assay: GIET fluorescence lifetime (FLIM) on graphene-supported lipid monolayers; 200 nM mNeon-pYpt7-GTP anchored in lipid layers on graphene and glass; 100 nM Mon1-Ccz1 or HOPS added for 5 min at room temperature, washed 8 times with HBS; lifetime ratio of mNeon
T7 construct: Mon1, S. cerevisiae; chromosomal locus under the GAL1 promoter; Ccz1, S. cerevisiae; chromosomal locus under the GAL1 promoter, TAP-tagged; Eluted from IgG beads by TEV cleavage; also called GEF; source: S. cerevisiae, overexpressed, purified (IgG Sepharose, TEV elution)
T7 sequence (looked up) 1: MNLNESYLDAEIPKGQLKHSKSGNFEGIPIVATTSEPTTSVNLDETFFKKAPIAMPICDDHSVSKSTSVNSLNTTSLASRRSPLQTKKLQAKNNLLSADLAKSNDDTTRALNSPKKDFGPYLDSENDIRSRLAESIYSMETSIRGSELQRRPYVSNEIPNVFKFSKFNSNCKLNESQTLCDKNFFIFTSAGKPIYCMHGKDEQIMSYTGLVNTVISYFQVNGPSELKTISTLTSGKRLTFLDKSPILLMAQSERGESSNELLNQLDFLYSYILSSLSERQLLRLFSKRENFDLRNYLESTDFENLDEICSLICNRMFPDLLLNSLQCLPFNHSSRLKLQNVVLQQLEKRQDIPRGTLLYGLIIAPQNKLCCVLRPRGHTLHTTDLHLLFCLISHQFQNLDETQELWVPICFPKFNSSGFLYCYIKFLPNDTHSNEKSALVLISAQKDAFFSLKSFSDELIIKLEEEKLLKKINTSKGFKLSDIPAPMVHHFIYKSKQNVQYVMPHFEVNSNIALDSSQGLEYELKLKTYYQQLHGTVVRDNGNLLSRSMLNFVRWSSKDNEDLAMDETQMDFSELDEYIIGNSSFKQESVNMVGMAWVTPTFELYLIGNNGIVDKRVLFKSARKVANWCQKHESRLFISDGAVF
T7 sequence (looked up) 2: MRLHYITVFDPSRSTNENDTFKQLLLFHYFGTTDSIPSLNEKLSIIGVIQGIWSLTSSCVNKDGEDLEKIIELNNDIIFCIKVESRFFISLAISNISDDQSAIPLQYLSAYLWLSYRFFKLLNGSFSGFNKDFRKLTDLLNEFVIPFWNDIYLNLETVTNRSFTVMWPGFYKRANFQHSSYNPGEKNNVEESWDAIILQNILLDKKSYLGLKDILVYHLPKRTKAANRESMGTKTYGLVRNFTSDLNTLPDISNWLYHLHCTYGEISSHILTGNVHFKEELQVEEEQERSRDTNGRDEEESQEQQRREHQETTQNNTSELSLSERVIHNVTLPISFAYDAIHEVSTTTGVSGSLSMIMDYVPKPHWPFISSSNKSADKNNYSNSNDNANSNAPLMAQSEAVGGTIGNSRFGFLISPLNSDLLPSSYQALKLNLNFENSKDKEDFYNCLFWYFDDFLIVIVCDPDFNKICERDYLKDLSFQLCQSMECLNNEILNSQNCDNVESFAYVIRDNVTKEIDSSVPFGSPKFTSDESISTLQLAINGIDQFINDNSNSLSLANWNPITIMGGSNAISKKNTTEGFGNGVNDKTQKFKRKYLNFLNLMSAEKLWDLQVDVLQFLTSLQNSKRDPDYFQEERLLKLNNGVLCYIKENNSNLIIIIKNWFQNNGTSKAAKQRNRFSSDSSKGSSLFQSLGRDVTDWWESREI

Measured: binding result

B1: prenylated Ypt7 (natural protein, S. cerevisiae, UniProt P32939 1-208, looked up)
chain: MSSRKKNILKVIILGDSGVGKTSLMHRYVNDKYSQQYKATIGADFLTKEVTVDGDKVATMQVWDTAGQERFQSLGVAFYRGADCCVLVYDVTNASSFENIKSWRDEFLVHANVNSPETFPFVILGNKIDAEESKKIVSEKSAQELAKSLGDIPLFLTSAKNAINVDTAFEEIARSALQQNQADTEAFEDDYNDAINIRLDGENNSCSC
modifications: C-terminal prenyl (geranylgeranyl) group, added by in vitro prenylation
notes: Ypt7, Rab7-like GTPase of S. cerevisiae; pET24d-GST-TEV-Ypt7 is surmised (the other construct carries a C-terminal His6 tag); GDP-loaded with GDI, GTP-loaded on membranes; also called pYpt7; pYpt7-GTP; source: E. coli BL21 (DE3) Rosetta, purified, prenylated in vitro
binds: [1] | [2] | [3] | [4] | [5]

B2: prenylated mNeonGreen-Ypt7 (natural protein, S. cerevisiae, UniProt P32939 1-208, looked up)
chain: MSSRKKNILKVIILGDSGVGKTSLMHRYVNDKYSQQYKATIGADFLTKEVTVDGDKVATMQVWDTAGQERFQSLGVAFYRGADCCVLVYDVTNASSFENIKSWRDEFLVHANVNSPETFPFVILGNKIDAEESKKIVSEKSAQELAKSLGDIPLFLTSAKNAINVDTAFEEIARSALQQNQADTEAFEDDYNDAINIRLDGENNSCSC
modifications: C-terminal prenyl (geranylgeranyl) group, added by in vitro prenylation
notes: Ypt7, Rab7-like GTPase of S. cerevisiae; GDP-loaded in the complex with GDI; GTP-loaded when anchored in the lipid layers; also called mNeon-pYpt7; mNeon-Ypt7; source: E. coli BL21 (DE3) Rosetta, purified (Glutathione Sepharose, TEV cleavage), prenylated in vitro; not shown: mNeonGreen (via a GGSGx3 linker), N-terminal, kept
binds: HOPS complex | Mon1-Ccz1 complex
